From US20020132769A1

Molecular target: fiber on the vector capsid of the adenoviral vector Av3GFP (adenovirus, serotype not stated)
Experiment: cell-based or functional assay

“trimerized sCAR (sCAR followed by a glycine/serine linker, the isoleucine variant GCN4 trimerization domain, and a 6 His Tag; plasmid pGStriCARb) (receptor)” gave a % GFP Positive HepG2 cells, Av3GFP + 5 µg trimeric sCAR (Av3GFP alone: 98) of 43%, a % GFP Positive HepG2 cells, Av3GFP + 10 µg trimeric sCAR (Av3GFP alone: 98) of 32% and a % GFP Positive HepG2 cells, Av3GFP + 20 µg trimeric sCAR (Av3GFP alone: 98) of 32%.
